Reference: article PMC6747709, “Homology Modeling-Based in Silico Affinity Maturation Improves the Affinity of a Nanobody” (International Journal of Molecular Sciences, 2019)
Residue numbers refer to the chain shown, from its start. Names and notes keep the numbering of the source.

B1: Nb02 quadruple mutant M7 (G107W, T108H, S109V, F110A) (VHH)
VHH: EVQLQASGGGLVQAGGSLRLSCAASGFTNERSQNMGWFRQAPGKEREGVACISSRVVECWYADSVKGRFTISRDNAKNTVYLQMNSLKPEDTAVYYCAAPRAITWHVAVGEHMCDYWGQGTQVTVSS
notes: also called best mutant; lead variant; source: E. coli TransB (DE3), purified (Ni2+ IMAC, HisTrap HP); not shown: His6, C-terminal, kept
B2: Nb02 mutant M6 (VHH)
VHH: B1 VHH with S53Q, A108F
notes: One of five triple and two quadruple mutants combined from the round 1 mutations; source: E. coli TransB (DE3), purified (Ni2+ IMAC, HisTrap HP)
B3: Nb02 mutant M3 (VHH)
VHH: B1 VHH with S53Q, W105G, A108F
notes: as for B2
B4: Nb02 mutant M4 (VHH)
VHH: B1 VHH with S53Q, W105G, V107S
notes: the text says only that M4 includes F110A; One of five triple and two quadruple mutants combined from the round 1 mutations; source: E. coli TransB (DE3), purified (Ni2+ IMAC, HisTrap HP)
B5: Nb02 mutant M2 (VHH)
VHH: B1 VHH with S53Q, H106T, A108F
notes: as for B2
B6: Nb02 mutant M1 (VHH)
VHH: B1 VHH with S53Q, V107S, A108F
notes: One of five triple and two quadruple mutants combined from the round 1 mutations (S55Q, G107I, G107W, T108H, S109E, S109V, F110A); source: E. coli TransB (DE3), purified (Ni2+ IMAC, HisTrap HP)
B7: Nb02 mutant M5 (VHH)
VHH: B1 VHH with A108F
notes: as for B2

What was measured:
Conditions in all cases: both partners purified
[1] = target: T1, CD47 extracellular domain (biotin (enzymatically biotinylated; stated for the SPR experiment)); assay: ELISA; indirect ELISA after heat treatment of the VHH (10 min at six temperatures, 4 to 70 °C); CD47^ext coated at 30 ug/mL; VHH at 30 ug/mL, 2 h at 37 °C; detected with HRP-conjugated anti-His tag mAb, OD450
T1 construct: CD47 extracellular domain; bought protein Abcam ab174029; source: bought: Abcam (ab174029), enzymatically biotinylated
T1 sequence (chain, as listed by the source): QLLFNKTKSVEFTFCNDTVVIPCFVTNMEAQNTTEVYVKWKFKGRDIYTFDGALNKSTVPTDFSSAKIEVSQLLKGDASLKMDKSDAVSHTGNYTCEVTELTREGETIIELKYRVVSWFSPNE

[2] = target: T1, CD47 extracellular domain; assay: ELISA; indirect ELISA; CD47^ext coated at 30 ug/mL overnight at 4 °C; serially diluted VHH, 2.5 h at 37 °C; detected with HRP-conjugated anti-His tag mAb, OD450
[3] = target: T1, CD47 extracellular domain; assay: SPR; Biacore 3000, 25 °C; ~350 RU enzymatically biotinylated CD47^ext immobilised on a CM5 chip, VHHs flowed over at 40 uL/min in 10 mM HEPES, 150 mM NaCl, 3 mM EDTA, 0.05% P20, pH 7.4; 1:1 Langmuir model; duplicates

Row | Binder | OD450 at 70 °C relative to 4 °C [1] | ELISA signal relative to M0 at 5.625 ug/mL [2] | ELISA signal relative to M0 at 360 ug/mL [2] | Kd [3]
1 | B1 | ~45% | 158% | ~120% | 3.2 ± 1 nM
2 | B2 | – | – | – | 58.2 ± 4.5 nM
3 | B3 | – | – | – | 69.5 ± 6.1 nM
4 | B4 | – | – | – | 57 ± 7.3 nM
5 | B5 | – | – | – | 11.4 ± 2.1 nM
6 | B6 | – | – | – | 74.5 ± 5.5 nM
7 | B7 | – | – | – | 25.3 ± 3.7 nM
